Measured values reported in the supplement of paper PMC9112550, “Optimization of the antimicrobial peptide Bac7 by deep mutational scanning” (BMC Biology, 2022).

test system: Escherichia coli TOP10; assay: shrunken log2 fold change of peptide-encoding DNA abundance (4.5 h post-induction vs induction); higher = less antimicrobial activity (less host growth inhibition); details: time post-induction: 4.5 h; library: site-saturation at positions 5, 18, 19, 20
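Note: peptides expressed intracellularly from a pBAD plasmid library in pooled LB shake-flask culture, induced with 0.3% L-arabinose, DNA abundance read by NGS, three biological replicates, DESeq2 with apeglm shrinkage.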

Sequence | shrunken log2 fold change
RRIRHRPPRLPRPRPRPTDGPRP | -0.0791
RRIRWRPPRLPRPRPRPPLHPRP | 0.417
RRIRTRPPRLPRPRPRPPQGPRP | 0.235
RRIRMRPPRLPRPRPRPLANPRP | 0.235
RRIRGRPPRLPRPRPRPQPTPRP | 1.02
RRIRQRPPRLPRPRPRPHRMPRP | -0.373
RRIRARPPRLPRPRPRPAKYPRP | -0.156
RRIRLRPPRLPRPRPRPVILPRP | -1
RRIRVRPPRLPRPRPRPFHWPRP | -0.0122
RRIRLRPPRLPRPRPRPLPYPRP | 0.514
RRIRGRPPRLPRPRPRPADNPRP | -0.0713
RRIRGRPPRLPRPRPRPVLKPRP | 0.402
RRIRSRPPRLPRPRPRPLLCPRP | -0.039
RRIRIRPPRLPRPRPRPYARPRP | -1.22
RRIRSRPPRLPRPRPRPYNGPRP | -0.0342
RRIRKRPPRLPRPRPRPQAFPRP | -0.0237
RRIRKRPPRLPRPRPRPNVPPRP | 0.11
RRIRFRPPRLPRPRPRPNRIPRP | -0.619
RRIRGRPPRLPRPRPRPWTMPRP | 0.033
RRIRTRPPRLPRPRPRPDTPPRP | -0.193

Sequence | shrunken log2 fold change
RRIRFRPPRLPRPRPRPVPTPRP | 0.113
RRIRHRPPRLPRPRPRPAWPPRP | 0.613
RRIRKRPPRLPRPRPRPVPKPRP | 0.289
RRIRVRPPRLPRPRPRPKTAPRP | 0.0988
RRIRWRPPRLPRPRPRPFKPPRP | -0.231
RRIRDRPPRLPRPRPRPTNTPRP | -0.142
RRIRQRPPRLPRPRPRPAIQPRP | -0.679
RRIRQRPPRLPRPRPRPSKNPRP | 0.0658
RRIRWRPPRLPRPRPRPLEEPRP | 1.06
RRIRNRPPRLPRPRPRPHFPPRP | -0.186
RRIRARPPRLPRPRPRPWPTPRP | 0.703
RRIRRRPPRLPRPRPRPFCYPRP | -0.00369
RRIRPRPPRLPRPRPRPLDWPRP | 0.349
RRIRCRPPRLPRPRPRPERLPRP | 0.0345
RRIRLRPPRLPRPRPRPQSAPRP | -0.372
RRIRYRPPRLPRPRPRPAAKPRP | 0.152
RRIRVRPPRLPRPRPRPMYHPRP | -0.0185
RRIRRRPPRLPRPRPRPCPAPRP | 0.392
RRIRLRPPRLPRPRPRPCDTPRP | -0.131
RRIRMRPPRLPRPRPRPTFGPRP | 0.374

Sequence | shrunken log2 fold change
RRIRNRPPRLPRPRPRPMNIPRP | -0.24
RRIRCRPPRLPRPRPRPATHPRP | -0.0187
RRIRPRPPRLPRPRPRPHKNPRP | -0.0554
RRIRIRPPRLPRPRPRPHLVPRP | -0.573
RRIRSRPPRLPRPRPRPEISPRP | -0.094
RRIRRRPPRLPRPRPRPPAQPRP | 0.535
RRIRPRPPRLPRPRPRPLMDPRP | -0.145
RRIRMRPPRLPRPRPRPYGKPRP | -0.0311
RRIRHRPPRLPRPRPRPATAPRP | -0.0944
RRIRDRPPRLPRPRPRPCQLPRP | -0.0273
RRIRYRPPRLPRPRPRPHLTPRP | -0.466
RRIRRRPPRLPRPRPRPRHTPRP | 0.268
RRIRYRPPRLPRPRPRPIQHPRP | -0.89
RRIRSRPPRLPRPRPRPHQPPRP | -0.00655
RRIRSRPPRLPRPRPRPTAMPRP | 0.4
RRIRDRPPRLPRPRPRPNHFPRP | -0.189
RRIRPRPPRLPRPRPRPTYEPRP | 0.0844
RRIRMRPPRLPRPRPRPCPWPRP | 0.0763
RRIRHRPPRLPRPRPRPFEYPRP | -0.219
RRIRDRPPRLPRPRPRPMYGPRP | -0.0676
